Like-named read-outs stand apart in the source and are kept apart here.
How the values were obtained:
[1] = target: hG7-BM1 (hVH-B1, hVL-B1) (human); test: SPR; Biacore X100; CD24-GST flowed over immobilized antibody; 1:1 binding model; procedure as in ref. 45
[2] = target: hG7-BM1 (hVH-B1, hVL-B1) (human); test: as above; remark: listed apart in the source

Chain of hG7-BM1 (hVH-B1, hVL-B1) (human) (heavy, as listed by the source, chain 1 of 2): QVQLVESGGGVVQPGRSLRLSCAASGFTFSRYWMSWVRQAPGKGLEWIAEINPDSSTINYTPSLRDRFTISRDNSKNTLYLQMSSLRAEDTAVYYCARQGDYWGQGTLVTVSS
Chain of hG7-BM1 (hVH-B1, hVL-B1) (human) (light, as listed by the source, chain 2 of 2): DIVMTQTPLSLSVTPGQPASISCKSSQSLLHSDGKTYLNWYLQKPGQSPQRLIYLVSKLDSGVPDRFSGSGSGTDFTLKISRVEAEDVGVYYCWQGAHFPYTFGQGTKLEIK

Kd [1]: 1.64 nM
koff [1]: 0.000764 s⁻¹
kon [1]: 465000 M⁻¹ s⁻¹
Kd [2]: 0.164 nM
Binder: SETTTGTSSNSSQSTSNSGLAPNPTNATTKAAG (natural protein) [CD24-GST]

From publication PMC5584245
